Data as given in patent US20070065890.

Key:
[1] = biological target: H1 histones isolated from cells treated with TSA and nicotinamide, P10412
[2] = biological target: histone H1 (purified calf thymus H1)
[3] = biological target: purified recombinant HA-H1b (expressed in E. coli), P10412
Chain of purified recombinant HA-H1b (expressed in E. coli), P10412 (P10412 whole entry, looked up): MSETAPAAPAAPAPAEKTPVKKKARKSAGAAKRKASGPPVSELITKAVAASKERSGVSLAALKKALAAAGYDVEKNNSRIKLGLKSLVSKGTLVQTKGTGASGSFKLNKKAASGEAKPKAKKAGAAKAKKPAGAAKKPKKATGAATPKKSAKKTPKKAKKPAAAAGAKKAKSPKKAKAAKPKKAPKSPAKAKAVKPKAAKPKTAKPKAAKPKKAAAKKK

Chain of H1 histones isolated from cells treated with TSA and nicotinamide, P10412 (P10412 whole entry, looked up): as above

| Protein | western blot with the acetyl H1-K26 antibody after treatment with SirT1 [1] | nicotinamide exchange reaction (NER) with H1 as acetylated substrate [2] | release of [3H]-acetyl label from p300-acetylated H1 [2] | release of [3H]-acetyl label from p300-acetylated recombinant H1b [3] |
| --- | --- | --- | --- | --- |
| baculovirus-expressed recombinant FLAG-SirT1 protein (protein) MADEAALALQPGGSPSAAGADREAASSPAGEPLRKRPRRDGPGLERSPGEPGGAAPEREVPAAARGCPGAAAAALWREAEAEAAAAGGEQEAQATAAAGEGDNGPGLQGPSREPPLADNLYDEDDDDEGEEEEEAAAAAIGYRDNLLFGDEIITNGFHSCESDEEDRASHASSSDWTPRPRIGPYTFVQQHLMIGTDPRTILKDLLPETIPPPELDDMTLWQIVINILSEPPKRKKRKDINTIEDAVKLLQECKKIIVLTGAGVSVSCGIPDFRSRDGIYARLAVDFPDLPDPQAMFDIEYFRKDPRPFFKFAKEIYPGQFQPSLCHKFIALSDKEGKLLRNYTQNIDTLEQVAGIQRIIQCHGSFATASCLICKYKVDCEAVRGDIFNQVVPRCPRCPADEPLAIMKPEIVFFGENLPEQFHRAMKYDKDEVDLLIVIGSSLKVRPVALIPSSIPHEVPQILINREPLPHLHFDVELLGDCDVIINELCHRLGGEYAKLCCNPVKLSEITEKPPRTQKELAYLSELPPTPLHVSEDSSSPERTSPPDSSVIVTLLDQAAKSNDDLDVSESKGCMEEKPQEVQTSRNVESIAEQMENPDLKNVGSSTGEKNERTSVAGTVRKCWPNRVAKEQISRRLDGNQYLFLPPNRYIFHGAEVYSDSEDDVLSSSSCGSNSDSGTCQSPSLEEPMEDESEIEEFYNGLEDEPDVPERAGGAGFGTDGDDQEAINEAISVKQEVTDMNYPSNKS | resulted in decreased immunoreactivity | Histone H1 served as substrate in the SirT1-dependent NER assay | SirT1 -released up to 70% of the total label | The same result was observed using recombinant human H1b |
| recombinant SirT3 (protein) MAFWGWRAAAALRLWGRVVERVEAGGGVGPFQACGCRLVLGGRDDVSAGLRGSHGARGEPLDPARPLQRPPRPEVPRAFRRQPRAAAPSFFFSSIKGGRRSISFSVGASSVVGSGGSSDKGKLSLQDVAELIRARACQRVVVMVGAGISTPSGIPDFRSPGSGLYSNLQQYDLPYPEAIFELPFFFHNPKPFFTLAKELYPGNYKPNVTHYFLRLLHDKGLLLRLYTQNIDGLERVSGIPASKLVEAHGTFASATCTVCQRPFPGEDIRADVMADRVPRCPVCTGVVKPDIVFFGEPLPQRFLLHVVDFPMADLLLILGTSLEVEPFASLTEAVRSSVPRLLINRDLVGPLAWHPRSRDVAQLGDVVHGVESLVELLGWTEEMRDLVQRETGKLDGPDK |  |  |  | SirT2 or SirT3 failed to significantly deacetylate H1b |
| recombinant SirT2 (protein) MAEPDPSHPLETQAGKVQEAQDSDSDSEGGAAGGEADMDFLRNLFSQTLSLGSQKERLLDELTLEGVARYMQSERCRRVICLVGAGISTSAGIPDFRSPSTGLYDNLEKYHLPYPEAIFEISYFKKHPEPFFALAKELYPGQFKPTICHYFMRLLKDKGLLLRCYTQNIDTLERIAGLEQEDLVEAHGTFYTSHCVSASCRHEYPLSWMKEKIFSEVTPKCEDCQSLVKPDIVFFGESLPARFFSCMQSDFLKVDLLLVMGTSLQVQPFASLISKAPLSTPRLLINKEKAGQSDPFLGMIMGLGGGMDFDSKKAYRDVAWLGECDQGCLALAELLGWKKELEDLVRREHASIDAQSGAGVPNPSTSASPKKSPPPAKDEARTTEREKPQ |  |  |  | SirT2 or SirT3 failed to significantly deacetylate H1b |
